# Data from article PMC2899887 (Biochemistry, 2010).
# Where no end group is shown, it is not given here.
# T1: isolated 2nd SH3 domain (SH3.2) of human Nck2, residues 112-168 (human, UniProt O43639 112-168)
# T1 sequence (looked up): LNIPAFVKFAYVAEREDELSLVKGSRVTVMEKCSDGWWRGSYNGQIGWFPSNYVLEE
# T2: Nck2_70-168 (human, UniProt O43639 70-168)
# T2 sequence (looked up): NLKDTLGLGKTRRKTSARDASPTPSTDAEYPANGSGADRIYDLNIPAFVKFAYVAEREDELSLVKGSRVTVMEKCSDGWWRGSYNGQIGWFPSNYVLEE
# Assays:
# [1] = target: EGFR 647-654 (Homo sapiens) (UniProt P00533); experiment: NMR; conditions: cited from earlier work
# [2] = target: T1, isolated 2nd SH3 domain (SH3.2) of …; experiment: NMR titration
# Nck2_70-168 = target: T2, Nck2_70-168; experiment: NMR titration
Molecule,fold increase of Kd against the isolated SH3.2 domain (Nck2_70-168) [fold],further results
Nck1 SH3.2 (from UniProt P16333),–,Kd [1]: 80 µM
LKDTLGLGKTRRKTSARDAS-NH2 [Nck2_71-90 peptide],–,Kd [2]: ~1700 µM

# Further lines, with some results ahead:
fold increase of Kd against the isolated SH3.2 domain (Nck2_70-168) [fold],Molecule,further results
4.7,QDKPPAPPMRN-NH2 [Pak1 peptide (9-QDKPPAPPMRN-19)],–
4.7,EVPVPPPVPPRR-NH2 [SOS1 peptide (1146-EVPVPPPVPPRR-1157)],–
